From patent US20240327516A1 (Zymeworks, published 2024)
Numbering of substitutions follows the chain as printed. Where two headings read alike, the source gives them in different places.

B1: v21791, trivalent and bispecific antibody construct [MSLN (2 Fab) x CD3 (1 Fab)] (bispecific antibody, human IgG1, kappa, lambda, L234A L235A)
heavy 1: not shown
heavy 2: QVQLVQSGAEVKKPGASVKVSCKASGYSFTGYTMNWVRQAPGQGLEWMGLITPYNGASSYNQKFRGKATMTVDTSTSTVYMELSSLRSEDTAVYYCARGGYDGRGFDYWGQGTLVTVSSASTKGPSVFPRAPSSKSTSGGTAALGCLVKDYFPEPVTVSWNSGALTSGVHTFPAVLQSSGLYKLSSVVTVPSSSLGTQTYICNVNHKPSNTKVDKKVEPKSCDKTHTCPPCPAPEAAGGPSVFLFPPKPKDTLMISRTPEVTCVVVSVSHEDPEVKFNWYVDGVEVHNAKTKPREEQYNSTYRVVSVLTVLHQDWLNGKEYKCKVSNKALPAPIEKTISKAKGQPREPQVYVLPPSRDELTKNQVSLLCLVKGFYPSDIAVEWESNGQPENNYLTWPPVLDSDGSFFLYSKLTVDKSRWQQGNVFSCSVMHEALHNHYTQKSLSLSPG
light 1: NFMLTQPHSVSESPGKTVTISCKRNTGNIGSNYVNWYQQHEGSSPTTIIYRNDKRPDGVSDRFSGSIDRSSKSASLTISNLKTEDEADYFCQSYSSGFIFGGGTKLTVLGQPKAAPSVTLFPPSSEQLQANKARLVCLISDFYPGAVTVAWKADSSPVKAGVETTTPSKQSNNKYAASSYLSLTPEQWKSHKSYSCQVTHEGSTVEKTVAPAECS
light 2: DIQMTQSPSSLSASVGDRVTITCSASSSVSYMHWYQQKSGKAPKLLIYDTSKLASGVPSRFSGSGSGTDFTLTISSLQPEDFATYYCQQWSGYPLTFGQGTKLEIKRTVAAPSVFIFPPSDEQLKSGTASVGCWLNNFYPREAKVQWKVDNALQSGNSQESVTEQDSKDSTYSLDSTLELSKADYEKHKVYACEVTHQGLSSPVTKSFNRGEC
notes: also called Fab^3 construct; triple-Fab construct
B2: v21815, bivalent and bispecific antibody construct [MSLN (1 Fab) x CD3 (1 scFv)] (bispecific antibody, human IgG1, kappa, L234A L235A)
heavy 1: not shown
heavy 2: B1 heavy 2 with R130L, K183S
light: B1 light 2 with G132V, W134L, D175S, E179T
notes: also called 1x1 construct; 1+1 anti-CD3 scFv x anti-MSLN Fab construct
B3: v31926, negative control antibody [Hemagglutinin (HA) (2 scFv) x CD3 (1 Fab)] (bispecific antibody)
heavy 1: not shown
heavy 2: QVQLVQSGAEVKKPGASVRVSCRASGYIFTESGITWVRQAPGQGLEWMGWISGYSGDTKYAQKLQGRVTMTKDTSTTTAYMELRSLRYDDTAVYYCARDVQYSGSYLGAYYFDYWSPGTLVTVSSGGGGSGGGGSGGGGSGGGQSVLTQPPSASGTPGQRVTISCSGSSSNIGTNYVYWYQQFPGTAPKLLIYRSYQRPSGVPDRFSGSKSGSSASLAISGLQSEDEADYYCATWDDSLDGWVFGGGTKLTVLAAEPKSSDKTHTCPPCPAPEAAGGPSVFLFPPKPKDTLMISRTPEVTCVVVSVSHEDPEVKFNWYVDGVEVHNAKTKPREEQYNSTYRVVSVLTVLHQDWLNGKEYKCKVSNKALPAPIEKTISKAKGQPREPQVYVLPPSRDELTKNQVSLLCLVKGFYPSDIAVEWESNGQPENNYLTWPPVLDSDGSFFLYSKLTVDKSRWQQGNVFSCSVMHEALHNHYTQKSLSLSPG
light: B1 light 1 with Q127E, R134T, K192R, A212T
B4: v18490, anti-MSLN antibody (mAb, MSLN (SS) Fab x 2) (antibody, human IgG1, kappa, L234A L235A)
heavy 1: B1 heavy 2 with R130L, K183S
heavy 2: not shown
light: B1 light 2 with G132V, W134L, D175S, E179T
B5: v29048, trivalent and bispecific antibody construct [MSLN (2 scFv) x CD3 (1 Fab)] (bispecific antibody, human IgG1, lambda, L234A L235A)
heavy 1: not shown
heavy 2: EVQLLESGGGLVQPGGSVRISCAASGYSFTGYTMNWVRQAPGKGLEWIGLITPYSGASSYADSFKGRATLSVDNSKNTAYMQLNSLRAEDTAVYYCARGGYDGRGFDYWGQGTLVTVSSGGGGSGGGGSGGGGSDIQLTQSPSSLSASVGDRVTMTCSASSSVSYMHWYQQKPGKAPKLWIYDTSKLASGVPSRFSGSGSGTDYTLTISSVQPEDFATYYCQQWSKHPLTFGQGTKVEIKAAEPKSSDKTHTCPPCPAPEAAGGPSVFLFPPKPKDTLMISRTPEVTCVVVSVSHEDPEVKFNWYVDGVEVHNAKTKPREEQYNSTYRVVSVLTVLHQDWLNGKEYKCKVSNKALPAPIEKTISKAKGQPREPQVYVLPPSRDELTKNQVSLLCLVKGFYPSDIAVEWESNGQPENNYLTWPPVLDSDGSFFLYSKLTVDKSRWQQGNVFSCSVMHEALHNHYTQKSLSLSPG
light: B1 light 1 with Q127E, R134T, K192R, A212T
B6: v29045, trivalent and bispecific antibody construct [MSLN (2 scFv) x CD3 (1 Fab)] (bispecific antibody, human IgG1, lambda, L234A L235A)
heavy 1: not shown
heavy 2: QVQLVQSGAEVKKPGASVKISCKASGYSFTGYTMNWVRQAPGQGLEWIGLITPYSGASSYAQKFQGRATLTVDKSTSTAYMELSSLRSEDTAVYYCARGGYDGRGFDYWGQGTLVTVSSGGGGSGGGGSGGGGSEIVLTQSPATLSLSPGERVTMSCSASSSVSYMHWYQQKPGQAPRLWIYDTSKLASGVPARFSGSGSGTDYTLTISSVEPEDFAVYYCQQWSGYPLTFGQGTKVEIKAAEPKSSDKTHTCPPCPAPEAAGGPSVFLFPPKPKDTLMISRTPEVTCVVVSVSHEDPEVKFNWYVDGVEVHNAKTKPREEQYNSTYRVVSVLTVLHQDWLNGKEYKCKVSNKALPAPIEKTISKAKGQPREPQVYVLPPSRDELTKNQVSLLCLVKGFYPSDIAVEWESNGQPENNYLTWPPVLDSDGSFFLYSKLTVDKSRWQQGNVFSCSVMHEALHNHYTQKSLSLSPG
light: B1 light 1 with Q127E, R134T, K192R, A212T

Experiments:
[1] = target: T1, mesothelin (MSLN) on MSLN-expressing tumor cells (human, UniProt Q13421 296-598)
T1 sequence (Q13421 other isoform, or with tags, fused parts or gaps limits assumed): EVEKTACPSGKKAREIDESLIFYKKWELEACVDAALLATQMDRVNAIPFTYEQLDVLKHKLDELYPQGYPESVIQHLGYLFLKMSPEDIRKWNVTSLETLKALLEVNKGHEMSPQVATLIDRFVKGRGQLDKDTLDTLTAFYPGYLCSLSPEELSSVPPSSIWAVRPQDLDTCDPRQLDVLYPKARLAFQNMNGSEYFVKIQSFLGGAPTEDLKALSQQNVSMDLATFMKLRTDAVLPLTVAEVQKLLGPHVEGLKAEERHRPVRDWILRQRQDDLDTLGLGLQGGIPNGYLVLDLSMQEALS

[2] = target: T1, mesothelin (MSLN) on MSLN-expressing …; remark: listed apart in the source
[3] = target: T1, mesothelin (MSLN) on MSLN-expressing …; test: cell-based or functional assay
[4] = target: T2, CD3 on CD3+ Jurkat cells and primary human T cells (human, UniProt P07766 23-207); test: flow cytometry on primary human T cells, apparent affinity
T2 construct: whole, on cells; also called native CD3; CD3ε
T2 sequence (P07766 23-207): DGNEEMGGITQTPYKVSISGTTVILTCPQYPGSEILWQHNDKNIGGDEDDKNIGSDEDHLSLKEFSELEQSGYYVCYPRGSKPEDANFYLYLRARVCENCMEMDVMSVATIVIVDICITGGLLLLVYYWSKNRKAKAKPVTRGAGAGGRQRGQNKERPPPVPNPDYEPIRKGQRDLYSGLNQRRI

[5] = target: T2, CD3 on CD3+ Jurkat cells and primary …; test: whole-cell ELISA on CD3+ Jurkat cells, apparent affinity; Jurkat cells
[6] = target: T1, mesothelin (MSLN) on MSLN-expressing …; remark: listed apart in the source
[7] = target: T1, mesothelin (MSLN) on MSLN-expressing …; remark: listed apart in the source
[8] = target: T2, CD3 on CD3+ Jurkat cells and primary …; test: whole-cell ELISA on CD3+ Jurkat cells, apparent affinity
[9] = target: T1, mesothelin (MSLN) on MSLN-expressing …; test: whole-cell flow cytometry on OVCAR-3 cells, apparent affinity
[10] = target: T2, CD3 on CD3+ Jurkat cells and primary …; test: cell ELISA on whole CD3+ Jurkat cells (HRP anti-human IgG Fc, A 450nm)
[11] = target: T1, mesothelin (MSLN) on MSLN-expressing …; test: flow cytometry on MSLN+ OVCAR-3 cells (Alexa Fluor 647 anti-IgG-Fc, MFI)
[12] = target: T2, CD3 on CD3+ Jurkat cells and primary …; test: flow cytometry on primary human CD4+ T cells (anti-IgG-Fc detection, geo MFI)
[13] = target: T2, CD3 on CD3+ Jurkat cells and primary …; test: flow cytometry on primary human CD8+ T cells (anti-IgG-Fc detection, geo MFI)
[14] = target: T2, CD3 on CD3+ Jurkat cells and primary …; test: whole-cell flow cytometry on primary human T cells, apparent affinity
[15] = target: T1, mesothelin (MSLN) on MSLN-expressing …; test: cell-based or functional assay; remark: listed apart in the source
[16] = target: MSLN (form in the assay not stated) (UniProt Q13421 296-580); test: method and antigen form not stated in Table 12
Chain of MSLN (form in the assay not stated) (Q13421 other isoform, or with tags, fused parts or gaps limits assumed): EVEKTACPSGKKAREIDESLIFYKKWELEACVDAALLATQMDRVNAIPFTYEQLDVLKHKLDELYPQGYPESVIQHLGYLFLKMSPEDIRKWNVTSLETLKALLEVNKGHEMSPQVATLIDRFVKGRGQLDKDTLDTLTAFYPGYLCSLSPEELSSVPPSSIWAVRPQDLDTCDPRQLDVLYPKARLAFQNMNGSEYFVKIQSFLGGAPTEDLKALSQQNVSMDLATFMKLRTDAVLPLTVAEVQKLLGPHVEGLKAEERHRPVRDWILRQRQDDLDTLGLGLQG

[17] = target: T2, CD3 on CD3+ Jurkat cells and primary …; test: whole-cell ELISA on CD3+ Jurkat cells, apparent affinity; main value of the cell, outside the parentheses

Binder | EC50 [1] | maximum killing of BxPC3 cells [3] | EC50 [4] | EC50 [8] | IC50 of T cell-dependent cytotoxicity on OVCAR-3 cells (pan T cells, E:T 5:1, 72 h) [15] | Affinity to MSln [16] | further results
B1 | 1.9 nM | 60% | 7.4 nM |  |  |  | EC50 (read off the curve) [2]: ~0.7 nM; EC50 [5]: 402 nM
B2 | 1.7 nM | 35% | 0.2 nM | 2.4 nM |  |  | Kd [6]: ~1.73 nM; EC50 (read off the curve) [7]: ~2 nM; EC50 [9]: 6.7 nM; EC50 (read off the curve) [10]: ~2 nM; EC50 (read off the curve) [11]: ~7 nM; EC50 (read off the curve) [12]: ~2 nM; EC50 (read off the curve) [13]: ~2 nM
B3 |  |  |  |  |  |  | EC50 [14]: 102 nM
B4 | 1.6 nM |  |  |  |  |  | 
B5 | 0.5 nM |  | 183 nM |  | 0.0004 nM | 9.8 nM | EC50 [17]: 5.5 nM
B6 | 0.4 nM |  |  | 1.3 nM | 0.0272 nM | 62.6 nM | 
